# In article PMC3574120:
# Biological target: FrpB F3-3 variant (Neisseria meningitidis)
# Experiment: crystal structure; FrpB F3-3, space group P212121, three copies in the asymmetric unit about a non-crystallographic 3-fold axis, 2.40 Å; C8E5 detergent; crystals from the monomeric SEC peak
substance,measurement,value
FrpB F3-3 variant (natural protein),stoichiometry N,3
